Experiments:
[1] = molecular target: mono-ubiquitin (untagged, native N- and C-termini) (UniProt P0CG48 1-76); assay: crystal structure
linear di-ubiquitin = linear di-ubiquitin (UniProt P0CG48 1-76; P0CG48 1-76); assay: ITC

B1: HOIP-RBR (residues 696–1072) (domain or fragment, human, UniProt Q96EP0 696-1072, looked up)
chain: AQECAVCGWALPHNRMQALTSCECTICPDCFRQHFTIALKEKHITDMVCPACGRPDLTDDTQLLSYFSTLDIQLRESLEPDAYALFHKKLTEGVLMRDPKFLWCAQCSFGFIYEREQLEATCPQCHQTFCVRCKRQWEEQHRGRSCEDFQNWKRMNDPEYQAQGLAMYLQENGIDCPKCKFSYALARGGCMHFHCTQCRHQFCSGCYNAFYAKNKCPEPNCRVKKSLHGHHPRDCLFYLRDWTALRLQKLLQDNNVMFNTEPPAGARAVPGGGCRVIEQKEVPNGLRDEACGKETPAGYAGLCQAHYKEYLVSLINAHSLDPATLYEVEELETATERYLHVRPQPLAGEDPPAYQARLLQKLTEEVPLGQSIPRRRK
B1: binds [1]; binds (linear di-ubiquitin).

Source: PMC4856479 (Nature, 2016)
